Data as given in patent US20250388696A1 (NAVIGO PROTEINS, published 2025).
Changes are numbered by the printed parent chain. Where no end group is shown, it is not given here.

B1: Fusion proteins with albumin binding domain of SEQ ID NO: 5 (designed binder, not shown: small tags and cut ends)
chain: LAEAKVLALKELDKYGISNYYKNLINNAKTIEGVKALKDAIVAA
modifications: also: part of fusion protein, targeting moiety, linker, tag and order not given here
B2: Fusion proteins with albumin binding domain of SEQ ID NO: 6 (designed binder, not shown: small tags and cut ends)
chain: B1 chain with A40E
modifications: also: part of fusion protein, targeting moiety, linker, tag and order not given here
notes: also called c20
B3: Fusion proteins with albumin binding domain of SEQ ID NO: 7 (designed binder, not shown: small tags and cut ends)
chain: B1 chain with K35E, V42L
modifications: also: part of fusion protein, targeting moiety, linker, tag and order not given here
notes: also called c24
B4: Fusion proteins with albumin binding domain of SEQ ID NO: 13 (designed binder, not shown: small tags and cut ends)
chain: LAEAKVLAIKELDKAGISDYYFNLINNAKTIEGVKALKAQIVAA
modifications: also: part of fusion protein, targeting moiety, linker, tag and order not given here
B5: Fusion proteins with albumin binding domain of SEQ ID NO: 21 (designed binder, not shown: small tags and cut ends)
chain: B1 chain with D39A
modifications: also: part of fusion protein, targeting moiety, linker, tag and order not given here
B6: Fusion proteins with albumin binding domain of SEQ ID NO: 22 (designed binder, not shown: small tags and cut ends)
chain: B1 chain with D39A, A40Q, V42L
modifications: also: part of fusion protein, targeting moiety, linker, tag and order not given here
B7: Fusion proteins with albumin binding domain of SEQ ID NO: 23 (designed binder, not shown: small tags and cut ends)
chain: B1 chain with D39E
modifications: also: part of fusion protein, targeting moiety, linker, tag and order not given here
notes: also called c19
B8: Fusion proteins with albumin binding domain of SEQ ID NO: 24 (designed binder, not shown: small tags and cut ends)
chain: B1 chain with K35E
modifications: also: part of fusion protein, targeting moiety, linker, tag and order not given here
B9: Fusion proteins with albumin binding domain of SEQ ID NO: 25 (designed binder, not shown: small tags and cut ends)
chain: B1 chain with K35E, D39E
modifications: also: part of fusion protein, targeting moiety, linker, tag and order not given here
B10: Fusion proteins with albumin binding domain of SEQ ID NO: 26 (designed binder, not shown: small tags and cut ends)
chain: B1 chain with K35E, D39E, V42L
modifications: also: part of fusion protein, targeting moiety, linker, tag and order not given here
B11: fusion protein 217781 (designed binder, not shown: small tags and cut ends)
chain (part 1 of 2): not shown
chain (part 2 of 2): B1 chain with D39E
notes: also called CID 217781
B12: fusion protein 217787 (designed binder, not shown: small tags and cut ends)
chain (part 1 of 2): not shown
chain (part 2 of 2): LAEAKVLALKELDKYGISDFYKRLIDKAKTIEGVEALKDAILAA
notes: also called CID 217787
B13: fusion protein 218466 (designed binder, not shown: small tags and cut ends)
chain (part 1 of 2): not shown
chain (part 2 of 2): B1 chain with A40E
notes: also called CID 218466
B14: fusion protein 218467 (designed binder, not shown: small tags and cut ends)
chain (part 1 of 2): not shown
chain (part 2 of 2): B4 chain with D19N, I31V, A36D
notes: also called CID 218467
B15: fusion protein 218512 (designed binder, not shown: small tags and cut ends)
chain (part 1 of 2): not shown
chain (part 2 of 2): B1 chain with I31V, D39E
notes: also called CID 218512
B16: fusion protein 218513 (designed binder, not shown: small tags and cut ends)
chain (part 1 of 2): not shown
chain (part 2 of 2): B1 chain with I31V, K35E, D39E, V42L
notes: also called CID 218513
B17: fusion protein 218514 (designed binder, not shown: small tags and cut ends)
chain (part 1 of 2): not shown
chain (part 2 of 2): B1 chain with K35E, V42L
notes: also called CID 218514

Target: T1, mouse serum albumin (mouse, UniProt P07724 25-608)
T1 construct: also called MSA
Experiment: SPR, MSA immobilised
Procedure: (§1) Recombinant protein A, HSA, MSA or target (either ED-B or Her2) was immobilized on a High Capacity Amine sensor chip (Bruker) after NHS/EDC activation with a Sierra SPR-32 system (Bruker). The chip was equilibrated with SPR running buffer (PBS 0.05%, Tween pH 7.3). Injection of ethanolamine after target immobilization was used to block free NHS groups. To determine the binding of fusion proteins to FAP, the Fc-tagged target was injected with 60 or 30 nM to Protein A coupled spots followed by the injection of fusion proteins.
(§2) Binding proteins were applied to the chip in serial dilutions with a flow rate of 30 μl/min. Upon binding, analyte accumulated on the surface increasing the refractive index. This change in the refractive index was measured in real time and plotted as response or resonance units versus time. The association was performed for 120 seconds and the dissociation for 180 seconds. After each run, the chip surface was regenerated with 30 μl regeneration buffer (10 mM glycine pH 2.0 or pH 1.5) and equilibrated with running buffer. Binding studies were carried out using the Sierra SPR-32 system (Bruker); data evaluation was operated via the Sierra Analyser software, provided by the manufacturer, by the use of the Langmuir 1:1 model (RI=0).

Binder | Kd
B1 | < 10000 pM
B2 | < 10000 pM
B3 | < 10000 pM
B4 | < 16000 pM
B5 | < 16000 pM
B6 | < 16000 pM
B7 | < 10000 pM
B8 | < 16000 pM
B9 | < 16000 pM
B10 | < 10000 pM

Target: T2, Her2-Fc (human, UniProt P04626 23-652)
T2 construct: Coated in ELISA
Experiment: ELISA on coated Her2-Fc; KD 24 h against KD 0 h, mouse serum
Procedure: (§3) High binding plates (Greiner, 781061) were immobilized with 2.5 μg/ml hFAP-Fc or 1.2 μg/ml Her2-Fc over night at 4° C. Dilution series of 3 μM to 0.07 pM of fusion proteins with binding specifically to Her2 were incubated in 100% human serum or 100% mouse serum for 24 h at 37° C. Dilution series of 3 µM to 0.2 pM or 1 μM to 0.01 fM of fusion proteins with binding specifically to hFAP were incubated in 100% human serum or 100% mouse serum for 24 h at 37° C. ELISA-plates were washed three times with PBST (PBS+0.1% Tween) and blocked with 3% BSA/0.5% Tween/PBS up to 2 h at room temperature (rt). After preincubation for 0 h or 24 h in the presence of serum the dilution series were incubated on ELISA-plates for up to 1 h at rt. Wells were washed with PBST and incubated with biotinylated anti-ubiquitin-antibody (1:300) for up to 1 h at rt. The binding was visualized with Streptavidin-HRP (1:5.000).
(§4) The fusion proteins comprise the albumin binding domain (referred to as HED) and the targeting moiety.

Binder | increase of KD vs target [fold]
B11 | 1.72 fold
B12 | 1.43 fold
B13 | 1.14 fold
B14 | 1.2 fold
B15 | 1.2 fold
B16 | 1.23 fold
B17 | 1.19 fold

Target: T3, Her2 expressed on Sk-Br-3 cells (human, UniProt P04626 23-1255)
T3 construct: whole, on cells; also called human epidermal growth factor receptor 2
Experiment: flow cytometry, dilution series on Sk-Br-3 cells
Procedure: Her2 expressing Sk-Br-3-cells and HEK293-hFAP overexpressing cells were thawed, washed with medium containing FCS, subsequently washed with FACS blocking buffer (PBS/0.1% Sodium Azide/3% FCS) and 100 μl seeded in 96-well round bottom plates with a density of 1×10⁶ cells/ml. Dilution series from 10 µM to 8.6 fM (CID 217781, CID 217787) and a dilution series of 3 µM to 0.2 μM (CID 218466, CID 218467, 218512, CID 218513, CID 218514, CID 218515, CID 218516) were incubated on Her2-expressing Sk-Br-3-cells and dilution series from 1 μM to 0.07 μM of fusion proteins 218690 and 218702 were incubated on hFAP-overexpressing HEK293-cell line for 45 min at 4° C. After centrifugation the supernatants were removed and cells were washed with FACS blocking buffer and 100 μl/well rabbit anti-Strep-Tag antibody (GenScript; A00626), 1:300 diluted in FACS blocking buffer were added. After removal of the primary antibody goat anti-rabbit IgG Alexa Fluor 488 antibody (Invitrogen; A4008) was applied in a 1:1000 dilution in FACS blocking buffer. Flow cytometry measurement was conducted on the Guava easyCyte 5HT device from Merck-Millipore at excitation wavelength 488 nm and emission wavelength 525/30 nm. The * in table 2 refers to a fusion protein with the albumin binding domain as dimer (homo-dimer) and/or the targeting moiety as dimer.

Binder | Kd
B11 | 2050 pM
B12 | 2170 pM
B13 | 2690 pM
B14 | 3810 pM
B15 | 1720 pM
B16 | 2480 pM
B17 | 2190 pM

Target: T4, human serum albumin (human, UniProt P02768 25-609)
T4 construct: also called HSA
T4 sequence (P02768 25-609 limits assumed): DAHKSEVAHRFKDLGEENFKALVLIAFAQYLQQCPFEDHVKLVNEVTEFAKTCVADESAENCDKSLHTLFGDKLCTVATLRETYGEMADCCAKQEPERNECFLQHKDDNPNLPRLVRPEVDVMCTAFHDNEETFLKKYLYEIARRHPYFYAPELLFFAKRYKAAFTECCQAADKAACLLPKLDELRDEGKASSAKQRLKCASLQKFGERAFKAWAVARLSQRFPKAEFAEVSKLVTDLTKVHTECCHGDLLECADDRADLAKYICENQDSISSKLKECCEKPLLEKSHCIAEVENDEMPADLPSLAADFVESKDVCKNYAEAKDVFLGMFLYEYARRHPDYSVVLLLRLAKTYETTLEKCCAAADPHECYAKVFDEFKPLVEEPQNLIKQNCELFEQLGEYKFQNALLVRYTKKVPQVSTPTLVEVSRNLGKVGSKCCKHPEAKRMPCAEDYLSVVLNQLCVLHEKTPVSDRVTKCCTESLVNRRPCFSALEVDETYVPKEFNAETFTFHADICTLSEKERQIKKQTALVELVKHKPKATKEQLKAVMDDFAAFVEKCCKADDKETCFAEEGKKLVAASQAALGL
Experiment: SPR, HSA immobilised on the chip, pH 7.3, 1:1 Langmuir fit [continued]
Procedure: as §1, §2

Binder | Kd
B11 | 2900 pM
B12 | 600 pM
B13 | 6300 pM
B15 | 1800 pM
B16 | 1900 pM
B17 | 1800 pM

Target: T2, Her2-Fc
Experiment: ELISA on coated Her2-Fc; 0 h in human serum
Procedure: as §3, §4

Binder | Kd
B11 | 610 pM
B12 | 840 pM
B13 | 340 pM
B14 | 340 pM
B15 | 230 pM
B16 | 340 pM
B17 | 290 pM

Target: T2, Her2-Fc
Experiment: ELISA on coated Her2-Fc; 0 h in mouse serum
Procedure: as §3, §4

Binder | Kd
B11 | 360 pM
B12 | 420 pM
B13 | 210 pM
B14 | 170 pM
B15 | 200 pM
B16 | 250 pM
B17 | 210 pM

Target: T2, Her2-Fc
Experiment: ELISA on coated Her2-Fc; after 24 h in human serum at 37 C
Procedure: as §3, §4

Binder | max binding after 24 h [%]
B11 | 94.1%
B12 | 96.2%
B13 | 95.1%
B14 | 99%
B15 | 100%
B16 | 100%
B17 | 96.4%

Target: T2, Her2-Fc
Experiment: ELISA on coated Her2-Fc; after 24 h in mouse serum at 37 C
Procedure: as §3, §4

Binder | max binding after 24 h [%]
B11 | 97.7%
B12 | 100%
B13 | 96.6%
B14 | 104%
B15 | 98.6%
B16 | 106%
B17 | 100%

Target: T2, Her2-Fc
Experiment: ELISA on coated Her2-Fc; KD 24 h against KD 0 h, human serum
Procedure: as §3, §4

Binder | increase of KD vs target [fold]
B11 | 1.29 fold
B12 | 0.63 fold
B13 | 0.93 fold
B14 | 1.05 fold
B15 | 1.58 fold
B16 | 1.27 fold
B17 | 1.06 fold

Target: T5, Her2 (immobilised on the SPR chip) (human, UniProt P04626 23-652, limits assumed)
T5 construct: construct not described; also called human epidermal growth factor receptor 2
Experiment: SPR, Her2 immobilised on the chip, pH 7.3, 1:1 Langmuir fit [continued]
Procedure: as §1, §2

Binder | Kd
B11 | 4100 pM
B12 | 7300 pM
B13 | 4400 pM
B15 | 2700 pM
B16 | 3300 pM
B17 | 3300 pM

Target: T2, Her2-Fc
Experiment: ELISA on coated Her2-Fc; 24 h in human serum at 37 C
Procedure: as §3, §4

Binder | Kd
B11 | 790 pM
B12 | 530 pM
B13 | 320 pM
B14 | 360 pM
B15 | 360 pM
B16 | 430 pM
B17 | 300 pM

Target: T2, Her2-Fc
Experiment: ELISA on coated Her2-Fc; 24 h in mouse serum at 37 C
Procedure: as §3, §4

Binder | Kd
B11 | 630 pM
B12 | 600 pM
B13 | 230 pM
B14 | 200 pM
B15 | 240 pM
B16 | 310 pM
B17 | 250 pM
